The experiment deals with T1, human TNFR2 (human, UniProt P20333 23-461).
T1 construct: expressed on the surface of CHO cells; also called HuTNFR2; TNFRSF1B
T1 sequence: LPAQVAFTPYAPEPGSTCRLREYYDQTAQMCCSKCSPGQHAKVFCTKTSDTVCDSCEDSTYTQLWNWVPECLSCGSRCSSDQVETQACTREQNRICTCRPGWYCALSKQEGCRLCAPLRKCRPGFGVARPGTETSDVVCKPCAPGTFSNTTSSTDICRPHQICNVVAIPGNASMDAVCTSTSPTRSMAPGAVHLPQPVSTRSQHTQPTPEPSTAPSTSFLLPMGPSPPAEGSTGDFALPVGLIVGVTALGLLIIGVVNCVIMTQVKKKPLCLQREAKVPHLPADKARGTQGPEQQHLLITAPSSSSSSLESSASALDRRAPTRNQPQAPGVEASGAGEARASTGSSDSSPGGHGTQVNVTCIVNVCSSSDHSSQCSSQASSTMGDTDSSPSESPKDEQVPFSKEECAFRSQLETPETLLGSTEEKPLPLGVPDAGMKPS
Put plainly: binding to human TNFR2 CHO cells.

We go through 25 molecules from patent US20230406951A1 (Pfizer, published 2023).

Positions count from the first letter of the chain named.

B1: TetraFab 2172 (antibody)
heavy: QVQLVQSGAEVKKPGASVKVSCKVSGFSFPSSGVDWVRQAPGQGLEWLGVTFQEGSTHYNQKFQGRVTITKDTSKSTVYMELSSLRSEDTAVYYCASGEWDEGFVYWGQGTLVTVSSASTKGPSVFPLAPSSKSTSGGTAALGCLVKDYFPEPVTVSWNSGALTSGVHTFPAVLQSSGLYSLSSVVTVPSSSLGTQTYICNVNHKPSNTKVDKKVEPKSCGGGGSQVQLVQSGAEVKKPGASVKVSCKVSGFSFPSSGVDWVRQAPGQGLEWLGVTFQEGSTHYNQKFQGRVTITKDTSKSTVYMELSSLRSEDTAVYYCASGEWDEGFVYWGQGTLVTVSSASTKGPSVFPLAPSSKSTSGGTAALGCLVKDYFPEPVTVSWNSGALTSGVHTFPAVLQSSGLYSLSSVVTVPSSSLGTQTYICNVNHKPSNTKVDKKVEPKSCDKTHTCPPCPAPEAAGAPSVFLFPPKPKDTLMISRTPEVTCVVVDVSHEDPEVKFNWYVDGVEVHNAKTKPREEQYNSTYRVVSVLTVLHQDWLNGKEYKCKVSNKALPAPIEKTISKAKGQPREPQVYTLPPSREEMTKNQVSLTCLVKGFYPSDIAVEWESNGQPENNYKTTPPVLDSDGSFFLYSKLTVDKSRWQQGNVFSCSVMHEALHNHYTQKSLSLSPGK
light: DIQLTQSPSFLSASVGDRVTITCKASQNVGTAVAWYQQKPGKAPKLLIYAASTLQSGVPSRFSGSGSGTEFTLTISSLQPEDFATYYCLQYSSYPLTFGGGTKVEIKRTVAAPSVFIFPPSDEQLKSGTASVVCLLNNFYPREAKVQWKVDNALQSGNSQESVTEQDSKDSTYSLSSTLTLSKADYEKHKVYACEVTHQGLSSPVTKSFNRGEC
notes: TetraFab
As to B1, the binding result is reported as “no binding”.

B2: TetraFab 2182 (antibody)
heavy: B1 heavy with F52K, Q53G, E54Q, W100Q, F277K, Q278G, E279Q, W325Q
light: B1 light
notes: TetraFab
Take B2: the binding result is “no binding”.

B3: TetraFab 2192 (antibody)
heavy: B1 heavy with F52L, Q53G, E54H, W100H, F277L, Q278G, E279H, W325H
light: B1 light
notes: TetraFab
For B3, the binding result is “no binding”.

B4: TetraFab 2173 (antibody)
heavy: B1 heavy with F52L, Q53G, E54H, F277L, Q278G, E279H
light: B1 light
notes: TetraFab
Take B4: the binding result is recorded as “no binding”.

B5: TetraFab 2179 (antibody)
heavy: B1 heavy with F52K, Q53G, E54Q, W100S, D101T, F277K, Q278G, E279Q, W325S, D326T
light: B1 light
notes: TetraFab
As for B5, the binding result is “no binding”.

B6: TetraFab 2174 (antibody)
heavy: B1 heavy with F52H, Q53G, E54S, F277H, Q278G, E279S
light: B1 light
notes: TetraFab
For B6, the binding result was “no binding”.

B7: TetraFab 2191 (antibody)
heavy: B1 heavy with F52L, Q53G, E54H, W100S, D101T, F277L, Q278G, E279H, W325S, D326T
light: B1 light
notes: TetraFab
With B7, the binding result is given as “no binding”.

B8: TetraFab 2176 (antibody)
heavy: B1 heavy with F52W, Q53G, E54V, W100H, F277W, Q278G, E279V, W325H
light: B1 light
notes: TetraFab
On to B8, for which the binding result is “no binding”.

B9: TetraFab 2175 (antibody)
heavy: B1 heavy with F52W, Q53G, E54V, W100S, D101T, F277W, Q278G, E279V, W325S, D326T
light: B1 light
notes: TetraFab
On to B9, for which the binding result is on record as “no binding”.

B10: TetraFab 2185 (antibody)
heavy: B1 heavy with F52R, Q53G, W100R, F277R, Q278G, W325R
light: B1 light
notes: TetraFab
On to B10, for which the binding result is on record as “no binding”.

B11: IgG 1918 (antibody, name in Kabat numbering, V domains shown)
VH: QVQLVQSGAEVKKPGASVKVSCKVSGFSFPSSGVDWVRQAPGQGLEWLGVTRGEGSTHYNQKFQGRVTITKDTSKSTVYMELSSLRSEDTAVYYCASGEWDEGFVYWGQGTLVTVSS
VL: DIQLTQSPSFLSASVGDRVTITCKASQNVGTAVAWYQQKPGKAPKLLIYAASTLQSGVPSRFSGSGSGTEFTLTISSLQPEDFATYYCQQYNSYPFGGGTKVEIKR
notes: IgG
Regarding B11, the binding result is listed as “no binding”.

B12: IgG 1922 (antibody, name in Kabat numbering, V domains shown)
VH: B11 VH with R52W, E54V, W100S, D101T
VL: B11 VL
notes: IgG
Consider B12, for which the binding result was “no binding”.

B13: IgG 1921 (antibody, name in Kabat numbering, V domains shown)
VH: B11 VH with R52H, E54S
VL: B11 VL
notes: IgG
As to B13, the binding result is reported as “no binding”.

B14: IgG 1977 (antibody, name in Kabat numbering, V domains shown)
VH: B11 VH with W100S, D101T
VL: B11 VL
notes: IgG
B14: the binding result is “no binding”.

B15: IgG 1927 (antibody, name in Kabat numbering, V domains shown)
VH: B11 VH
VL: B11 VL with N92Y, Y94T
notes: IgG
With B15, the binding result was “no binding”.

B16: IgG 1978 (antibody, name in Kabat numbering, V domains shown)
VH: B11 VH with W100H
VL: B11 VL
notes: IgG
B16: the binding result is recorded as “no binding”.

B17: IgG 1925 (antibody, name in Kabat numbering, V domains shown)
VH: B11 VH with R52W, E54V, W100Q
VL: B11 VL
notes: IgG
On to B17, for which the binding result is given as “no binding”.

B18: IgG 1973 (antibody, name in Kabat numbering, V domains shown)
VH: B11 VH with R52K, E54Q, W100S, D101T
VL: B11 VL
notes: IgG
With B18, the binding result is on record as “no binding”.

B19: IgG 1979 (antibody, name in Kabat numbering, V domains shown)
VH: B11 VH with W100R
VL: B11 VL
notes: IgG
In the case of B19, the binding result is “no binding”.

B20: IgG 1933 (antibody, name in Kabat numbering, V domains shown)
VH: B11 VH with R52W, E54V, W100R
VL: B11 VL with N92Y, Y94T
notes: IgG
B20: the binding result is “no binding”.

B21: IgG 1926 (antibody, name in Kabat numbering, V domains shown)
VH: B11 VH with R52K, E54Q
VL: B11 VL with N92Y, Y94T
notes: IgG
With B21, the binding result was “no binding”.

B22: IgG 1924 (antibody, name in Kabat numbering, V domains shown)
VH: B11 VH with R52W, E54V, W100R
VL: B11 VL
notes: IgG
With B22, the binding result is listed as “no binding”.

B23: IgG 1931 (antibody, name in Kabat numbering, V domains shown)
VH: B11 VH with R52W, E54V, W100S, D101T
VL: B11 VL with N92Y, Y94T
notes: IgG
Take B23: the binding result is given as “no binding”.

B24: IgG 1932 (antibody, name in Kabat numbering, V domains shown)
VH: B11 VH with R52W, E54V, W100H
VL: B11 VL with N92Y, Y94T
notes: IgG
Regarding B24, the binding result is given as “no binding”.

B25: IgG 1934 (antibody, name in Kabat numbering, V domains shown)
VH: B11 VH with R52W, E54V, W100Q
VL: B11 VL with N92Y, Y94T
notes: IgG
In the case of B25, the binding result is reported as “no binding”.
